Reference: patent publication US20080305212A1

Key:
Assay in all cases: cell-based or functional assay
[1] = target: T1, Trypsin-like protease (TL1) from Fusarium oxysporum (Fusarium oxysporum) (UniProt P35049)
T1 sequence: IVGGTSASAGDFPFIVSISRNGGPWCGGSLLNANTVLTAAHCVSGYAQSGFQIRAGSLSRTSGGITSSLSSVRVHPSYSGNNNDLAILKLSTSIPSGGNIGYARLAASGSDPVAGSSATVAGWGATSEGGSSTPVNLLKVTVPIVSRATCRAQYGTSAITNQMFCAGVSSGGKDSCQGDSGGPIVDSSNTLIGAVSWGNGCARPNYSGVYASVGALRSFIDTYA

[2] = target: T2, Trypsin-like protease (TL5) from Fusarium solani (Fusarium solani)
T2 sequence: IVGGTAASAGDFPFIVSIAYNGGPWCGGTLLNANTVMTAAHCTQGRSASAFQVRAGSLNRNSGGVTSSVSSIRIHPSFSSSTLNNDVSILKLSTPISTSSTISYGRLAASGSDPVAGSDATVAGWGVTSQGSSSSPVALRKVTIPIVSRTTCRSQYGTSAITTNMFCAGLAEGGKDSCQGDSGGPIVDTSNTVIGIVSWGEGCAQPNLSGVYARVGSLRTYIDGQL

[3] = target: T3, Trypsin-like protease (TL6) from Fusarium cf. solani (Fusarium cf. solani)
T3 sequence: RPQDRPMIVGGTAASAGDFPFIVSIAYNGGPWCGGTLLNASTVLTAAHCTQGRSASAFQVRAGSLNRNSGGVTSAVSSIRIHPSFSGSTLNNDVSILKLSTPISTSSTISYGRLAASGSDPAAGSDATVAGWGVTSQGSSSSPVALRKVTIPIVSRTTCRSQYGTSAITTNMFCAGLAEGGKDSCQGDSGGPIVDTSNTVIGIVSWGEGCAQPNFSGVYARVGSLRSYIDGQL

bovine trypsin (bovine) = bovine trypsin (bovine) (UniProt P00760)
[4] = target: porcine trypsin (porcine) (UniProt P00761)

B1: Bowman-Birk inhibitor (commercial preparation, Cat # T-9777, Sigma-Aldrich) (protein, UniProt P01055 40-110, looked up)
chain: DDESSKPCCDQCACTKSNPPQCRCSDMRLNSCHSACKSCICALSYPAQCFCVDITDFCYEPCKPSEDDKEN
% residual activity at 0.00048 mg/ml Bowman-Birk inhibitor (% residual activity) [1]: 117
% residual activity at 0.00097 mg/ml Bowman-Birk inhibitor (% residual activity) [1]: 111
% residual activity at 0.00195 mg/ml Bowman-Birk inhibitor (% residual activity) [1]: 103
% residual activity at 0.0039 mg/ml Bowman-Birk inhibitor (% residual activity) [1]: 109
% residual activity at 0.0078 mg/ml Bowman-Birk inhibitor (% residual activity) [1]: 82
% residual activity at 0.0156 mg/ml Bowman-Birk inhibitor (% residual activity) [1]: 61
% residual activity at 0.0313 mg/ml Bowman-Birk inhibitor (% residual activity) [1]: 32
% residual activity at 0.0625 mg/ml Bowman-Birk inhibitor (% residual activity) [1]: 13
% residual activity at 0.125 mg/ml Bowman-Birk inhibitor (% residual activity) [1]: 5.8
% residual activity at 0.25 mg/ml Bowman-Birk inhibitor (% residual activity) [1]: 2.2
% residual activity at 0.5 mg/ml Bowman-Birk inhibitor (% residual activity) [1]: 0.8
% residual activity at 0.00048 mg/ml Bowman-Birk inhibitor (% residual activity) [2]: 78
% residual activity at 0.00097 mg/ml Bowman-Birk inhibitor (% residual activity) [2]: 71
% residual activity at 0.00195 mg/ml Bowman-Birk inhibitor (% residual activity) [2]: 57
% residual activity at 0.0039 mg/ml Bowman-Birk inhibitor (% residual activity) [2]: 55
% residual activity at 0.0078 mg/ml Bowman-Birk inhibitor (% residual activity) [2]: 43
% residual activity at 0.0156 mg/ml Bowman-Birk inhibitor (% residual activity) [2]: 29
% residual activity at 0.0313 mg/ml Bowman-Birk inhibitor (% residual activity) [2]: 19
% residual activity at 0.0625 mg/ml Bowman-Birk inhibitor (% residual activity) [2]: 7.2
% residual activity at 0.125 mg/ml Bowman-Birk inhibitor (% residual activity) [2]: 3.1
% residual activity at 0.25 mg/ml Bowman-Birk inhibitor (% residual activity) [2]: 1.2
% residual activity at 0.5 mg/ml Bowman-Birk inhibitor (% residual activity) [2]: 0.5
% residual activity at 0.00048 mg/ml Bowman-Birk inhibitor (% residual activity) [3]: 104
% residual activity at 0.00097 mg/ml Bowman-Birk inhibitor (% residual activity) [3]: 107
% residual activity at 0.00195 mg/ml Bowman-Birk inhibitor (% residual activity) [3]: 94
% residual activity at 0.0039 mg/ml Bowman-Birk inhibitor (% residual activity) [3]: 97
% residual activity at 0.0078 mg/ml Bowman-Birk inhibitor (% residual activity) [3]: 84
% residual activity at 0.0156 mg/ml Bowman-Birk inhibitor (% residual activity) [3]: 66
% residual activity at 0.0313 mg/ml Bowman-Birk inhibitor (% residual activity) [3]: 55
% residual activity at 0.0625 mg/ml Bowman-Birk inhibitor (% residual activity) [3]: 26
% residual activity at 0.125 mg/ml Bowman-Birk inhibitor (% residual activity) [3]: 9.5
% residual activity at 0.25 mg/ml Bowman-Birk inhibitor (% residual activity) [3]: 2.9
% residual activity at 0.5 mg/ml Bowman-Birk inhibitor (% residual activity) [3]: 1.3
% residual activity at 0.00048 mg/ml Bowman-Birk inhibitor (% residual activity) (bovine trypsin (bovine)): 0.9
% residual activity at 0.00097 mg/ml Bowman-Birk inhibitor (% residual activity) (bovine trypsin (bovine)): 5.3
% residual activity at 0.00195 mg/ml Bowman-Birk inhibitor (% residual activity) (bovine trypsin (bovine)): 0.1
% residual activity at 0.0039 mg/ml Bowman-Birk inhibitor (% residual activity) (bovine trypsin (bovine)): -0.4
% residual activity at 0.0078 mg/ml Bowman-Birk inhibitor (% residual activity) (bovine trypsin (bovine)): 0
% residual activity at 0.0156 mg/ml Bowman-Birk inhibitor (% residual activity) (bovine trypsin (bovine)): -1.5
% residual activity at 0.0313 mg/ml Bowman-Birk inhibitor (% residual activity) (bovine trypsin (bovine)): 0.1
% residual activity at 0.0625 mg/ml Bowman-Birk inhibitor (% residual activity) (bovine trypsin (bovine)): 0
% residual activity at 0.125 mg/ml Bowman-Birk inhibitor (% residual activity) (bovine trypsin (bovine)): 0
% residual activity at 0.25 mg/ml Bowman-Birk inhibitor (% residual activity) (bovine trypsin (bovine)): 0
% residual activity at 0.5 mg/ml Bowman-Birk inhibitor (% residual activity) (bovine trypsin (bovine)): 0
% residual activity at 0.00048 mg/ml Bowman-Birk inhibitor (% residual activity) [4]: 11
% residual activity at 0.00097 mg/ml Bowman-Birk inhibitor (% residual activity) [4]: 9.4
% residual activity at 0.00195 mg/ml Bowman-Birk inhibitor (% residual activity) [4]: 8.3
% residual activity at 0.0039 mg/ml Bowman-Birk inhibitor (% residual activity) [4]: 6.2
% residual activity at 0.0078 mg/ml Bowman-Birk inhibitor (% residual activity) [4]: 3.2
% residual activity at 0.0156 mg/ml Bowman-Birk inhibitor (% residual activity) [4]: 2.2
% residual activity at 0.0313 mg/ml Bowman-Birk inhibitor (% residual activity) [4]: 1
% residual activity at 0.0625 mg/ml Bowman-Birk inhibitor (% residual activity) [4]: 0.4
% residual activity at 0.125 mg/ml Bowman-Birk inhibitor (% residual activity) [4]: 0.2
% residual activity at 0.25 mg/ml Bowman-Birk inhibitor (% residual activity) [4]: 0.1
% residual activity at 0.5 mg/ml Bowman-Birk inhibitor (% residual activity) [4]: 0.1
